Columns and labels:
[1] = molecular target: T1, NPR-B receptor positive cell line, NIH/3T3 (Mus musculus, UniProt Q6VVW5); assay: Stimulation of cGMP production in NPR-B positive cells (cGMP ELISA); assay type: cell-based; conditions: FIG. 7A
T1 construct: natrieuretic peptide type C receptor B (NPR-B) positive cell line, NIH/3T3 and the negative cell line of HEK293 cells; endogenous in cells; host or cells: NIH/3T3
T1 sequence (Q6VVW5 17-1047): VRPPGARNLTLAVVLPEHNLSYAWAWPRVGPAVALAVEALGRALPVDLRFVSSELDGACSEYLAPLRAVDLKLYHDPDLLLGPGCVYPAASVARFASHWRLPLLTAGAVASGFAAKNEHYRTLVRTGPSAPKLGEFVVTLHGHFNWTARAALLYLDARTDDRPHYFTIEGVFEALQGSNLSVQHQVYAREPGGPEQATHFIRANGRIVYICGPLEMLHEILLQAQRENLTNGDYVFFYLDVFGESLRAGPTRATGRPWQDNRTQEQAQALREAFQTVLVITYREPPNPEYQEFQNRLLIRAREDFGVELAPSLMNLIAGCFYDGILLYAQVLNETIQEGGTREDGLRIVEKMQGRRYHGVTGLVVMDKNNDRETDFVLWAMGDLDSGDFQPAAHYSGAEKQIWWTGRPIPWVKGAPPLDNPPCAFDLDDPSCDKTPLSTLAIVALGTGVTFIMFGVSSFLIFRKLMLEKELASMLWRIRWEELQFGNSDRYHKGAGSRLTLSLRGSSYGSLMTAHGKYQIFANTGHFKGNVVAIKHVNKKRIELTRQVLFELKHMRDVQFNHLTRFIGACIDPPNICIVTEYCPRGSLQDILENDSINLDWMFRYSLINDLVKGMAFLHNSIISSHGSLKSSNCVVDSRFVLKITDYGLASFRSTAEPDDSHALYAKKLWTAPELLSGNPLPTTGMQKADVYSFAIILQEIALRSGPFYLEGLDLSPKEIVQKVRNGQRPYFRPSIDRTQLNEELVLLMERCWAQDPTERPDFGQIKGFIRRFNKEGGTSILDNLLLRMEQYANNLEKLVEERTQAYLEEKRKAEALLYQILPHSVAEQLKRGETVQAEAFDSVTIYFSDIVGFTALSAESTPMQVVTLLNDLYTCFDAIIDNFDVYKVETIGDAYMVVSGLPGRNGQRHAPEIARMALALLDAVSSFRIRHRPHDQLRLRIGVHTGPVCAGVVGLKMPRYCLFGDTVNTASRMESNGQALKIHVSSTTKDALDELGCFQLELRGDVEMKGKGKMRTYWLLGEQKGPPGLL
Method: The biological function of these purified protein was assayed for their stimulation of production of cGMP, using NPR-B receptor positive cell line, NIH/3T3 and NPR-B negative cell line HEK293 cells. The determination of cGMP was assay by ELISA using commercial CNP as standard curves. […] Surface preparation. NBR-B was immobilized at different levels in three flow cells via standard amine coupling, leaving Fc 1 unmodified to serve as a reference. All surface plasmon resonance (SPR) analysis was performed on a BIAcore 3000 system using series CM5 sensor chips. Data processing and analysis were performed using BIAevaluation software. All sensorgrams were double referenced by subtracting the response on a reference flow cell and a blank sample. Human NPR-B (R&D system) was covalently attached to a CM5 chip via amine coupling. A surface density of 6600 RU was used for measurements with natriuretic peptides Sequential injections of CNP (0.5-8 nM) were performed at a flow rate of […] (300 s for each), followed by a dissociation time of 900 s. […] Kinetic parameters were calculated assuming a simple 1:1 (Langmuir) binding. […] Kinetic parameters were calculated assuming a simple 1:1 (Langmuir) binding. […] Kinetic parameters were calculated assuming a simple 1:1 (Langmuir) binding. […] Kinetic parameters were calculated assuming a simple 1:1 (Langmuir) binding. […]

[2] = test system: NIH3T3 cells (cGMP secreted); assay: EC50 for CNP-Fc constructs, cGMP ELISA of NIH3T3 supernatant; assay type: cell-based; conditions: NIH3T3, 30 minutes, 1.8 mM IBMX, cGMP secreted by the cells; FIG. 25B
Method: EC50 for CNP-Fc described herein were measured by ELISA. 2.5E+05 NIH3T3 cells/well were plated. […] After 30 minutes, supernatant was collected for cGMP determined via ELISA. FIG. 25A illustrates a standard curve of cGMP.

AMI088: purified fusion protein Fc1-(G4S)4-CNP36 (IgG1 Fc), SEQ ID NO: 133
cGMP production stimulated by AAV vector encoded CNP or CNP-Fc [1]: highest level of cGMP
EC50 values (rank order) [2]: CNP-22 ≡Fc4-CNP36>Aflibercept-Fc4-CNP36>Fc1-CNP36>>Fc4-CNP22

— US20250099622A1, “COMPOSITIONS AND METHODS FOR EXPRESSING THERAPEUTICS” (priority 2022, published 2025)
